Results: article PMC4424837, “Toxin acidic residue evolutionary function-guided design of de novo peptide drugs for the immunotherapeutic target, the Kv1.3 channel” (Scientific Reports, 2015)
Positions of bridges follow the written chain, without caps; N, C: chain ends. Residues, ends and D or L forms follow the SMILES beside them. No end group written: not given here.

Columns and labels:
[1] = target: T1, Kv1.3 channel (Mus musculus, UniProt P16390); experiment: Patch-clamp whole-cell recording of Kv1.3 channel currents in transfected HEK293 cells; type: cell-based; conditions: for Reduction of the affinity of BmKTX-196 for the Kv1.3 channel: alanyl mutants of BmKTX-196
T1 construct: expressed in transfected cells; host or cells: HEK293 cells
Procedure: (§1) The cDNAs encoding mouse Kv1.1, human Kv1.2, mouse Kv1.3, human Kv7.1, human Kv11.1, human KCa3.1, human KCa2.2 and human KCa2.3 were subcloned into the Xho I and Bam HI sites of pIRES2-EGFP, a bicistronic expression vector (Clontech, USA) for coexpression with enhanced GFP.
(§2) Electrophysiological experiments were carried out using patch-clamp whole-cell recording as described previously[10][23][27][38]. HEK293 cells were transfected with appropriate cDNA plasmids using the SofastTM Transfection Reagent (Sunma). Potassium currents were recorded 1 to 3 days after transfection and positive cells were selected based on the presence of GFP fluorescence. Electrophysiological experiments were carried out at 22–25°C using patch-clamp whole-cell recording. Data analyses were performed with IgorPro (WaveMetrics, Lake Oswego, OR), and IC50 values were deduced by fitting a modified Hill equation to the data, Itoxin/Icontrol = 1/1 + ([toxin peptide]/IC50), where I is the peak current to the normalized data points obtained with at least five different toxin peptide concentrations. The results are mainly shown as the mean ± S.E, with n representing the number of experiments.

[2] = test system: Kv11.1; experiment: Patch-clamp whole-cell recording of Kv11.1 channel currents in transfected HEK293 cells; type: cell-based, human; conditions: 1 μM peptide, compared with Kv1.3
Procedure: as §1, §2

T1 sequence (P16390 whole entry): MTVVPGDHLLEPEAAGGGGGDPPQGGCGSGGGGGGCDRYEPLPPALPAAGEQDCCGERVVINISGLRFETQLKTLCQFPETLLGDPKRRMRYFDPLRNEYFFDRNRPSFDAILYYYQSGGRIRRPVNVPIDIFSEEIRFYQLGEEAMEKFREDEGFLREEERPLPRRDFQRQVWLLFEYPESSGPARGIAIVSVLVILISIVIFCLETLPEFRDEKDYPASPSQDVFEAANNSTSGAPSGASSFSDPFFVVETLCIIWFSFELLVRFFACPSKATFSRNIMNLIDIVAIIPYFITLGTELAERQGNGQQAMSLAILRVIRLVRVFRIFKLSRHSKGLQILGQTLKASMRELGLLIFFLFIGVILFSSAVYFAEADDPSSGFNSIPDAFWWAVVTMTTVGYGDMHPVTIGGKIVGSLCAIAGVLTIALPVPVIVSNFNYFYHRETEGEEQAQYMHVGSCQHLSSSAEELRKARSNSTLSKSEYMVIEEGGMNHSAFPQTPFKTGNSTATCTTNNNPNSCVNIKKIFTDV

BmKTX-19/K6A: alanyl mutant of BmKTX-19 at Lys6 (VGINVACKHSGQCLKPCKKAGMRFGKCINGKCDCTPKG; ends and bridges not checked; cysteine pairing not given here)
Impact on the inhibitory potency of BmKTX-19 on Kv1.3 ([1]; alanine-scanning mutagenesis, alanyl mutants of BmKTX-19, compared with the Lys8, His9 and Lys15 substitutions): much less of an impact

BmKTX-196/H9A: alanyl mutant of BmKTX-196 at His9 (VGINVDCKASGQCLKPCKKAGMRFGKCINGKCDCTPKG; ends and bridges not checked; cysteine pairing not given here)
Reduction of the affinity of BmKTX-196 for the Kv1.3 channel ([1]; alanine-scanning mutagenesis): 3 fold

BmKTX-196/K8A: alanyl mutant of BmKTX-196 at Lys8 (VGINVDCAHSGQCLKPCKKAGMRFGKCINGKCDCTPKG; ends and bridges not checked; cysteine pairing not given here)
Reduction of the affinity of BmKTX-196 for the Kv1.3 channel ([1]; alanine-scanning mutagenesis): 68 fold

CC[C@H](C)[C@H](NC(=O)CNC(=O)[C@@H](N)C(C)C)C(=O)N[C@@H](CC(N)=O)C(=O)N[C@H](C(=O)N[C@@H](CC(=O)O)C(=O)N[C@H]1CSSC[C@@H]2NC(=O)[C@H](CCCCN)NC(=O)CNC(=O)[C@H](Cc3ccccc3)NC(=O)[C@H](CCCNC(=N)N)NC(=O)[C@H](CCSC)NC(=O)CNC(=O)[C@H](C)NC(=O)[C@H](CCCCN)NC(=O)[C@H](CCCCN)NC(=O)[C@@H]3CSSC[C@@H](C(=O)N[C@H](C(=O)N4CCC[C@H]4C(=O)N[C@@H](CCCCN)C(=O)O)[C@@H](C)O)NC(=O)[C@H](CC(=O)O)NC(=O)[C@H](CSSC[C@H](NC(=O)[C@H](CCC(N)=O)NC(=O)CNC(=O)[C@H](CO)NC(=O)[C@H](Cc4c[nH]cn4)NC(=O)[C@H](CCCCN)NC1=O)C(=O)N[C@@H](CC(C)C)C(=O)N[C@@H](CCCCN)C(=O)N1CCC[C@H]1C(=O)N3)NC(=O)[C@H](CCCCN)NC(=O)CNC(=O)[C@H](CC(N)=O)NC(=O)[C@H]([C@@H](C)CC)NC2=O)C(C)C [BmKTX-196] (H-VGINVDCKHSGQCLKPCKKAGMRFGKCINGKCDCTPK-OH; disulfide 7-27, 13-32, 17-34)
Effect on Kv11.1 channel currents [2]: much less of an effect | Inhibition of Kv1.3 channel currents ([1]; 10 nM peptide, whole-cell patch clamp, HEK293): more than 50% | IC50 ([1]; whole-cell patch clamp, HEK293 transfected with mouse Kv1.3, 22-25°C, Hill fit, at least five concentrations, mean ± S.E. of at least three experiments, read-out: IC50 for inhibiting Kv1.3 channel current): 7.3 ± 1.8 nM
